In patent US11110182B2, “Multifunctional RNA nanoparticles and methods for treating cancer and therapeutic resistant cancer” (University of Cincinnati, priority 2016, dated 2021):

Tested on: BT474 cells
Assay: MTT assay, BT474 cells
Format: cell-based, human
Experimental: FIG. 3A) BT474 cells were incubated with 10 μg/mL control and pRNA-HER2apt-siMED1 nanoparticles for 48 h, and MED1 mRNA level was determined by real-time PCR. FIG. 3B) BT474 cells were incubated directly with (as indicated by -) or transfected with indicated pRNAs using lipofectamine 2000. At 48 h post treatment, MED1 protein levels were determined by western blotting. FIG. 3C) BT474 cells were treated with 10 μg/mL pRNA nanoparticles for 48 h and assayed for cell viability by MTT assay. FIG. 3D) Cells were treated as above and seeded for migration, and FIG. 3E) invasion transwell assays. Scale bar: 50 μm. FIG. 3F) After pRNA treatment for 48 h, the mRNA levels of ERα target genes TFF-1, FIG. 3G) c-Myc, and FIG. 3H) cyclin D1 in BT474 cells were determined by real-time PCR.
FIG. 4A) BT474 cells were treated with pRNA nanoparticles in combination with vehicle or 1 μM 4-hydroxy-tamoxifen (4-OHT) as indicated for 48 h, and assayed for cell viability by MTT assay. […] FIG. 4E) The number of mammospheres was counted, and FIG. 4F) the mammosphere size was calculated. […]
FIG. 9A) BT474 cells were treated with different concentrations of pRNA nanoparticles as indicated for 48 h. After that, MED1 protein level was determined by western blots, and FIG. 9B) the cell viability was determined by MTT assay. […]

B1: pRNA-HER2apt-siMED1: 3-WJ pRNA nanoparticle bearing a HER2-targeting RNA aptamer and two different MED1 siRNAs; strands p1 SEQ ID NO: 3, p2 SEQ ID NO: 4 (nucleic acid)
chain 1: GGACAGUGAAAGUGAGUCAAAGGAUCAAUCAUGGCCAAAGAUGUUACUUUGAGAGCCUU
chain 2: GGCUCUCAAAGUAACAUCUAAGGCCAUGUGUAUGUGGGGGGAGGACGAUGCGGUCUGCUGUGCUUGAUAUGCCCCAGACGACUCGCCCCCCACAUACUUUGUUGAUCCAAUGACUCACUUUCACUGUCCUU
modifications: 2'-F modification; third strand may lack entry; pRNA-HER2apt-siMED1, p1; pRNA-HER2apt-siMED1, p2
What does the source list for B1?
cell growth (MTT) (BT474, 48 h, nanoparticles alone): dose-dependently inhibited; effect on tamoxifen inhibition of cell growth (BT474, in combination with 1 μM 4-hydroxy-tamoxifen, 48 h): significantly enhanced the inhibitory effects of tamoxifen
